In FireProtDB (doi:10.1021/bi010565n):

Details: Aspergillus oryzae (strain ATCC 42149 / RIB 40), pH 7, Thermal, MOPS 30 mM, reversible: yes(0.94), whole UniProt chain shown

B1: Guanyl-specific ribonuclease T1 wild type, P00651 (protein)
chain: MMYSKLLTLTTLLLPTALALPSLVERACDYTCGSNCYSSSDVSTAQAAGYQLHEDGETVGSNSYPHKYNNYEGFDFSVSSPYYEWPILSSGDVYSGGSPGADRVVFNENNQLAGVITHTGASGNNFVECT
Protein B1 has a Tm (CD) of 51.2 °C and a Tm (DSC) of 51.5 °C.
